Assay results taken from FireProtDB (doi:10.1016/j.bbadis.2004.06.012).

B1: Aryl-hydrocarbon-interacting protein-like 1, Q9NZN9 (parent)
chain: MDAALLLNVEGVKKTILHGGTGELPNFITGSRVIFHFRTMKCDEERTVIDDSRQVGQPMHIIIGNMFKLEVWEILLTSMRVHEVAEFWCDTIHTGVYPILSRSLRQMAQGKDPTEWHVHTCGLANMFAYHTLGYEDLDELQKEPQPLVFVIELLQVDAPSDYQRETWNLSNHEKMKAVPVLHGEGNRLFKLGRYEEASSKYQEAIICLRNLQTKEKPWEVQWLKLEKMINTLILNYCQCLLKKEEYYEVLEHTSDILRHHPGIVKAYYVRARAHAEVWNEAEAKADLQKVLELEPSMQKAVRRELRLLENRMAEKQEEERLRCRNMLSQGATQPPAEPPTEPPAQSSTEPPAEPPTAPSAELSAGPPAEPATEPPPSPGHSLQH

Variants of: B1
Settings: Homo sapiens; pH 7.9; Thermal; CD; sodium Phosphate 5 mM; transition: 2; whole UniProt chain shown

Row | Variant | Tm [°C] | change of melting temperature, mutant - wild type (higher = more stable) [°C]
1 | MDAALLLNVEGVKKTILHGGTGELPNFITGSRVIFHFRTMKCDEERTVIDDSRQVGQPMHIIIGNMFKLEVWEILLTSMRVHEVAEFWCDTIHTGVYPILSRSLRQMAQGKDPIEWHVHTCGLANMFAYHTLGYEDLDELQKEPQPLVFVIELLQVDAPSDYQRETWNLSNHEKMKAVPVLHGEGNRLFKLGRYEEASSKYQEAIICLRNLQTKEKPWEVQWLKLEKMINTLILNYCQCLLKKEEYYEVLEHTSDILRHHPGIVKAYYVRARAHAEVWNEAEAKADLQKVLELEPSMQKAVRRELRLLENRMAEKQEEERLRCRNMLSQGATQPPAEPPTEPPAQSSTEPPAEPPTAPSAELSAGPPAEPATEPPPSPGHSLQH [T114I] | 34.8 | -9.3
2 | MDAALLLNVEGVKKTILHGGTGELPNFITGSRVIFHFRTMKCDEERTVIDDSRQVGQPMHIIIGNMFKLEVWEILLTSMRVHEVAEFWCDTIHTGVYPILSRSLRQMAQGKDPTEWHVHTCGLANMFAYHTLGYEDLDELQKEPQPLVFVIELLQVDAPSDYQRETWNLSNHEKMKAVPVLHGEGNRLFKLGRYEEPSSKYQEAIICLRNLQTKEKPWEVQWLKLEKMINTLILNYCQCLLKKEEYYEVLEHTSDILRHHPGIVKAYYVRARAHAEVWNEAEAKADLQKVLELEPSMQKAVRRELRLLENRMAEKQEEERLRCRNMLSQGATQPPAEPPTEPPAQSSTEPPAEPPTAPSAELSAGPPAEPATEPPPSPGHSLQH [A197P] | 40.5 | -3.6
3 | MDAALLLNVEGVKKTILHGGTGELPNFITGSRVIFHFRTMKCDEERTVIDDSRQVGQPMHIIIGNMFKLEVWEILLTSMRVHEVAEFWCDTIHTGVYPILSRSLRQMAQGKDPTEWHVHTCGLANMFAYHTLGYEDLDELQKEPQPLVFVIELLQVDAPSDYQRETWNLSNHEKMKAVPVLHGEGNRLFKLGRYEEASSKYQEAINCLRNLQTKEKPWEVQWLKLEKMINTLILNYCQCLLKKEEYYEVLEHTSDILRHHPGIVKAYYVRARAHAEVWNEAEAKADLQKVLELEPSMQKAVRRELRLLENRMAEKQEEERLRCRNMLSQGATQPPAEPPTEPPAQSSTEPPAEPPTAPSAELSAGPPAEPATEPPPSPGHSLQH [I206N] | 41.4 | -2.7
4 | MDAALLLNVEGVKKTILHGGTGELPNFITGSRVIFHFRTMKCDEERTVIDDSRQVGQPMHIIIGNMFKLEVWEILLTSMRVHEVAEFWCDTIHTGVYPILSRSLRQMAQGKDPTEWHVHTCGLANMFAYHTLGYEDLDELQKEPQPLVFVIELLQVDAPSDYQRETWNLSNHEKMKAVPVLHGEGNRLFKLGRYEEASSKYQEAIICLRNLQTKEKPWEVQWLKLEKMINTLILNYCQRLLKKEEYYEVLEHTSDILRHHPGIVKAYYVRARAHAEVWNEAEAKADLQKVLELEPSMQKAVRRELRLLENRMAEKQEEERLRCRNMLSQGATQPPAEPPTEPPAQSSTEPPAEPPTAPSAELSAGPPAEPATEPPPSPGHSLQH [C239R] | 46.7 | 2.6
5 | MDAALLLNVEGVKKTILHGGTGELPNFITGSRVIFHFRTMKCDEERTVIDDSRQVGQPMHIIIGNMFKLEVWEILLTSMRVHEVAEFWCDTIHTGVYPILSRSLRQMAQGKDPTEWHVHTCGLANMFAYHTLGYEDLDELQKEPQPLVFVIELLQVDAPSDYQRETWNLSNHEKMKAVPVLHGEGNRLFKLGRYEEASSKYQEAIICLRNLQTKEKPWEVQWLKLEKMINTLILNYCQCLLKKEEYYEVLEHTSDILRHHPSIVKAYYVRARAHAEVWNEAEAKADLQKVLELEPSMQKAVRRELRLLENRMAEKQEEERLRCRNMLSQGATQPPAEPPTEPPAQSSTEPPAEPPTAPSAELSAGPPAEPATEPPPSPGHSLQH [G262S] | 40.1 | -4
6 | MDAALLLNVEGVKKTILHGGTGELPNFITGSRVIFHFRTMKCDEERTVIDDSRQVGQPMHIIIGNMFKLEVWEILLTSMRVHEVAEFWCDTIHTGVYPILSRSLRQMAQGKDPTEWHVHTCGLANMFAYHTLGYEDLDELQKEPQPLVFVIELLQVDAPSDYQRETWNLSNHEKMKAVPVLHGEGNRLFKLGRYEEASSKYQEAIICLRNLQTKEKPWEVQWLKLEKMINTLILNYCQCLLKKEEYYEVLEHTSDILRHHPGIVKAYYVRARAHAEVXNEAEAKADLQKVLELEPSMQKAVRRELRLLENRMAEKQEEERLRCRNMLSQGATQPPAEPPTEPPAQSSTEPPAEPPTAPSAELSAGPPAEPATEPPPSPGHSLQH [W278X] | 33.2 | -10.9
7 | MDAALLLNVEGVKKTILHGGTGELPNFITGSRVIFHFRTMKCDEERTVIDDSRQVGQPMHIIIGNMFKLEVWEILLTSMRVHEVAEFWCDTIHTGVYPILSRSLRQMAQGKDPTEWHVHTCGLANMFAYHTLGYEDLDELQKEPQPLVFVIELLQVDAPSDYQRETWNLSNHEKMKAVPVLHGEGNRLFKLGRYEEASSKYQEAIICLRNLQTKEKPWEVQWLKLEKMINTLILNYCQCLLKKEEYYEVLEHTSDILRHHPGIVKAYYVRARAHAEVWNEAEAKADLQKVLELEPSMQKAVLRELRLLENRMAEKQEEERLRCRNMLSQGATQPPAEPPTEPPAQSSTEPPAEPPTAPSAELSAGPPAEPATEPPPSPGHSLQH [R302L] | 43.2 | -0.9
